Data as given in publication PMC8687462 (bioRxiv, 2021).

Experiments:
[1] = target: HSPB6-nhpSer16 (UniProt O14558); assay: SEC-MALS; conditions: scale: 14-3-3 chains per HSPB6 chain
[2] = target: HSPB6-pSer16 (UniProt O14558); assay: SEC-MALS; conditions: scale: 14-3-3 chains per HSPB6 chain
[3] = target: HSPB6-nhpSer16 (UniProt O14558); assay: AUC
[4] = target: HSPB6-pSer16 (UniProt O14558); assay: AUC
[5] = target: the molecule itself; assay: SEC-MALS

HSPB6-pSer16, sequence (O14558 whole entry): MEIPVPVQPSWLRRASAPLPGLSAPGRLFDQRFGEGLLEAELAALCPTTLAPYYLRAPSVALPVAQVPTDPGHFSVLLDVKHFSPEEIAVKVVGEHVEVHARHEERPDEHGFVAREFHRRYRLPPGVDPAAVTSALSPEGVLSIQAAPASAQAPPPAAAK

## 14-3-3ζ (untagged, co-expressed with His-tagged HSPB6) (from UniProt P63104 1-230) (natural protein)
[1]
  stoichiometry N: 1
[2]
  stoichiometry N: 1
[3]
  Kd: 120 nM
[4]
  Kd: 92 nM

B1: 14-3-3ζ S58E (natural protein)
chain: MDKNELVQKAKLAEQAERYDDMAACMKSVTEQGAELSNEERNLLSVAYKNVVGARRSEWRVVSSIEQKTEGAEKKQQMAREYREKIETELRDICNDVLSLLEKFLIPNASQAESKVFYLKMKGDYYRYLAEVAAGDDKKGIVDQSQQAYQEAFEISKKEMQPTHPIRLGLALNFSVFYYEILNSPEKACSLAKTAFDEAIAELDTLSEESYKDSTLIMQLLRDNLTLWTS
[5]
  stoichiometry N: 2
